Where no end group is shown, it is not given here. The star is where a group is joined. FITC = O=C1OC2(c3ccc(O)cc3Oc3cc(O)ccc32)c2ccc(NC(=S)*)cc21
Experiments:
Details in all cases: both partners purified
[1] = target: T1, biotinylated DCAF12 (Δ1–78) (human, UniProt Q5T6F0 79-453, biotin); assay: SPR; biotinylated DCAF12 (Δ1–78) immobilised (~3,200 RU) on a streptavidin chip, Biacore 8K+; peptides injected, 8-point two-fold series from 1 µM; 10 mM HEPES pH 7.4, 150 mM NaCl, 3 mM EDTA, 0.005% P20, 5% glycerol, 2% DMSO; 15 °C; 1:1 Langmuir fit
T1 construct: DDB1- and CUL4-associated factor 12 (DCAF12), human, residues 79-453 (Δ1-78); also called DCAF12:79-453aa; DCAF12 Δ1–78 (pFBD-BirA); source: Sf9 (pFBD-BirA vector), purified (TALON beads, Superdex S200 26/60)

DDB1–DCAF12 complex = DDB1–DCAF12 complex (human, UniProt Q5T6F0 1-453; Q5T6F0 1-453); assay: fluorescence polarisation; direct binding; protein titrated from 4 µM in two-fold steps against 20 nM FITC peptide; 20 mM Tris pH 7.5, 150 mM NaCl, 5% glycerol, 0.5 mM TCEP, 0.01% Triton; 45 min at room temperature
DCAF12 (Δ1–78) = target: T2, DCAF12 (Δ1–78) (human, UniProt Q5T6F0 79-453); assay: as above
T2 construct: DDB1- and CUL4-associated factor 12 (DCAF12), human, residues 79-453 (Δ1-78); also called DCAF12:79-453aa; N-terminally truncated DCAF12; source: Sf9 (baculovirus, pFBOH-MHL), purified (TALON beads, Superdex S200 26/60)

B1: unlabeled CCT5 C-terminal degron peptide (peptide)
peptide: IRKPGESEE
notes: nine C-terminal residues of T-complex protein 1 subunit epsilon (CCT5); also called CCT5 peptide
Kd [1]: 60 nM

B2: FITC-labeled CCT5 C-terminal degron peptide (peptide)
peptide: {FITC}-IRKPGESEE
notes: as for B1
Kd (DDB1–DCAF12 complex): 80 nM | Kd (DCAF12 (Δ1–78)): 370 nM

B3: FITC-labeled MAGEA3 C-terminal degron peptide (peptide)
peptide: {FITC}-LHEWVLREGEE
notes: 11 C-terminal residues of melanoma-associated antigen 3 (MAGEA3); also called MAGEA3 peptide
Kd (DDB1–DCAF12 complex): 180 nM | Kd (DCAF12 (Δ1–78)): 520 nM

B4: unlabeled MAGEA3 C-terminal degron peptide (peptide)
peptide: LHEWVLREGEE
notes: as for B3
Kd [1]: 161 nM

Source: article PMC11044963, “Probing the CRL4^DCAF12 interactions with MAGEA3 and CCT5 di-Glu C-terminal degrons” (PNAS Nexus, 2024)
